In the RNAGym collection of RNA variant scans (doi:10.7554/elife.90254):

B1: LINE1-full (parent)
chain: UACGUAGGUGGUUUUCCCCUGAUAGUGCUAAGGGGGCCUGGAAGUUUGGACUGGGCAGAGCUCAACACAGCGUGGCAAAGUGGCUGUGGCUAGACUGCCUCUCUGGAUUCCUCGUCACUCAGCAGGGCAUCUCUGAGAGAAAUGCC

Variants of: B1
Assay: self-cleavage, relative activity (ratio to wild type); higher = more cleavage; in vitro, sequencing; the parent is a self-cleaving ribozyme

Variant	self-cleavage
U1C G4A	0.46
C3A U96C	0.2
A2U A64U	0.37
A2C A107G	1.15
C3U U112A	1.38
A2G U87A	0.32
A2G A94C	0.29
A2G U104A	0.95
U1C U9A	0.75
U1C U26G	0.72
U1C U26C	0.64
A2G C84A	0.26
A2C A65U	0.17
A2U U47A	0.85
A2G A30U	0.85
C3U A50G	0.33
A2U U115A	0.77
G4C A107G	0.29
U1C U15A	0.81
U1C U12A	0.95
A2G A59G	0.39
C3A A31G	0.87
A2G G21C	1.04
U1C G7U	0.75

Variant	self-cleavage
A2G U96G	0.12
A2G U96C	0.22
G4A A92G	0
G4C U132C	0.97
A2C C56U	0.11
G4A G125A	0.86
G4A U45C	0.57
U1C U104C	0.68
U1C U104A	0.75
A2G U134A	1.38
C3G A141G	0.66
A2U C56A	0.03
A2U U9C	0.7
A2U U9A	0.86
C3U U9A	0.84
G4U A142G	1.46
C3A U13C	1.15
A2G U29C	0.81
G4A G127A	1.67
G4A C145U	1.11
A2G G93A	0.1
A2G U39A	0.89
C3U U26G	0.87
C3U U26C	1.01

Variant	self-cleavage
C3U U26A	1.04
C3U U13C	0.74
G4C A65G	0.08
C3U U12G	1.13
C3U U12C	0.57
G4A A24U	1.8
A2G U85A	0.25
C3A A129G	0.88
G4A C19U	0.59
A2G A129G	0.46
C3U U52C	1.31
A2G U52A	1.11
U1C U23A	0.56
U1C U23C	0.98
U1C U119C	0.78
G4A U130A	0.55
A2U U73C	0.56
A2U U73A	0.45
C3U A57U	0.17
A2U U130C	0.32
A2U A67G	0.61
G4A U108G	0.96
G4C U115A	1.51
G4U U20C	1.33

Variant	self-cleavage
A2G C17A	1.56
C3A A69G	0.31
C3A A30G	1.39
A2G A24G	0.71
A2U A79G	1.45
C3U A31U	0.37
C3A A124U	0.6
G4A A59G	0.12
U1C U45C	0.91
U1C U45G	0.48
A2G C118G	1.04
A2G A117U	1
U1G U13G	1.14
U1C U132C	0.97
G4A U12C	0.77
C3U U73C	1.49
C3U U73A	0.91
C3U U102A	1.1
C3U A129G	1.62
C3A G72A	0.38
A2U	0.98
A2C	1.24
A2G	0.85
A2G U47C	0.84

Variant	self-cleavage
A2U U12A	0.31
C3A U109C	0.53
G4C	1.17
G4U	1.25
G4A	0.89
A2G A42U	0.69
A2G A42G	0.72
G4C U12G	0.93
G4A G93A	0.03
G4A A43U	1.21
A2G G27A	0.19
A2C C17G	1.03
A2G G54A	0.27
C3G A79G	1.04
C3U C131U	1.02
A2G A69U	0.15
A2G A69G	0.32
A2U U87A	0.08
G4A U9C	0.69
G4C A140G	1.19
A2G G105U	1.3
A2G G105A	1.27
A2U A121G	1.53
G4A A30G	0.59

Variant	self-cleavage
C3U U143C	0.62
A2G A77G	1.36
A2U U81A	1.38
A2C A121G	0.95
G4A U46A	1.17
A2G A43U	1.34
C3A U115C	1.22
A2G A78G	1.04
C3A U12G	0.81
A2G U112C	0.87
C3U U87C	0.12
C3U U87A	0.18
C3A U39A	0.96
U1C U100A	0.69
A2G U45A	0.63
C3U A117G	0.45
C3U A117C	0.75
C3U A117U	1.31
A2G G137A	0.61
U1G G114C	0.52
U1C U52G	1.33
U1C U52C	1.38
G4A U81C	1.44
C3U A67G	0

Variant	self-cleavage
C3U A64G	0.21
A2G U12G	0.95
U1C U130C	1.04
A2G U143A	0.99
A2G U143C	1.2
U1C U14G	0.36
A2C A57U	0.11
A2U A43G	1.07
C3U A69G	0.53
G4A U39C	1.31
G4A U39A	0.54
C3U U62G	0.07
C3U U62A	0.2
A2C A138G	2.07
C3G A31U	0.98
A2G C66U	0.4
A2C A31G	1.34
A2C U26C	1.05
A2G C19U	0.56
A2U U104A	0.26
A2G U62A	0.09
A2G U62C	0.09
A2U A141G	1
